{"source": "patent US20120165244A1", "about": "“METHODS FOR BINDING LEWIS Y ANTIGEN” (priority 2008, published 2012)", "molecules": {"B1": {"name": "rTMD1: recombinant human thrombomodulin N-terminal lectin-like domain (residues Ala1-Ala155) with 6×His tag and c-Myc epitope, Pichia pastoris expressed (protein)", "chain": "EFAPAEPQPGGSQCVEHDCFALYPGPATFLNASQICDGLRGHLMTVRSSVAADVISLLLNGDGGVGRRRLWIGLQLPPGCGDPKRLGPLRGFQWVTGDNNTSYSRWARLDLNGAPLCGPLCVAVSAAEATVPSEPIWEEQQCEVKADGFLCEFHFPAYLEDDDDKIEQKLISEEDLNSAVDHHHHHH", "modifications": "left off: small tags and cut ends"}}, "key": {"K. pneumoniae [1]": {"system": "K. pneumoniae", "assay": "Lethal bacteremia model (K. pneumoniae 5×10^3 CFU/mouse), survival", "type": "in vivo, Male FVB mice", "conditions": "single i.v. dose 10 mg/kg; K. pneumoniae 5×10^3 CFU", "description": "(§1) Male FVB mice (8-10 weeks old) were used to model sepsis in vivo. The Institutional Animal Care and Use Committee of the National Cheng Kung University approved procedures. In the chronic endotoxemia model, various concentrations of rTMD1 or rTMD proteins in equi-molar amounts were administrated by tail intravenous (i.v.) injection and LPS (20 mg/kg) or K. pneumoniae (5×10^2 CFU/mouse, BCRC) was administrated by intraperitoneal (i.p.) injection. After 6 or 12 hours, mice were sacrificed by pentobarbital anesthesia (50 mg/kg; i.p.). […] The half-life of rTMD1 in the circulation was determined by i.v. injection of rTMD1 (10 mg/kg, equals 436.64 nmole/kg) and serum samples were collected at various time intervals. The levels of rTMD1 in the collected sera were determined by a sandwich ELISA which employed anti-c-Myc monoclonal antibody and TM-H300 as capture and detection antibodies (both from Santa Cruz Biotechnology), respectively. […] Mortality was monitored every 6-12 hours until all mice in either experimental group died. […] Serum samples were collected at various time intervals and the amount of LPS was determined by Limulus amebocyte lysate test (Associates of Cape Cod, E. Falmouth, Mass.). […] Outgrowth of K. pneumoniae was quantified by plating serial dilutions of blood samples on blood agar plates and enumerating colonies after overnight incubation at 37° C."}, "K. pneumoniae [2]": {"system": "K. pneumoniae", "assay": "K. pneumoniae (5×10^2 CFU/mouse) systemic sepsis model in mice", "type": "in vivo, Male FVB mice", "description": "TNF-α in conditioned medium or mouse serum was measured by an enzyme-linked immunosorbent assay (ELISA) (R&D Systems, Minneapolis, Minn.). Accumulation of nitrite in the medium or mouse serum was determined by a colorimetric assay using Griess reagent (Sigma-Aldrich). Blood urea nitrogen (BUN) and creatinine were measured with a Roche D&P modular (Roche Diagnostic Systems, Branchburg, N.J.). Assays were performed according to the manufacturer's protocol.\nMale FVB mice (8-10 weeks old) were used to model sepsis in vivo. The Institutional Animal Care and Use Committee of the National Cheng Kung University approved procedures. In the chronic endotoxemia model, various concentrations of rTMD1 or rTMD proteins in equi-molar amounts were administrated by tail intravenous (i.v.) injection and LPS (20 mg/kg) or K. pneumoniae (5×10^2 CFU/mouse, BCRC) was administrated by intraperitoneal (i.p.) injection. After 6 or 12 hours, mice were sacrificed by pentobarbital anesthesia (50 mg/kg; i.p.). Sera were collected and assayed for TNF-α, NO, BUN, and creatinine, and lung and kidney tissues were removed, fixed with formalin, and embedded in paraffin for histochemical examination. In the lethal sepsis model, rTMD1 (2 mg/kg, equals 87.3 nmole/kg) was i.v.-administrated at 0, 6, 12, and 24 hours after i.p. administration of LPS (40 mg/kg). The half-life of rTMD1 in the circulation was determined by i.v. injection of rTMD1 (10 mg/kg, equals 436.64 nmole/kg) and serum samples were collected at various time intervals. The levels of rTMD1 in the collected sera were determined by a sandwich ELISA which employed anti-c-Myc monoclonal antibody and TM-H300 as capture and detection antibodies (both from Santa Cruz Biotechnology), respectively. […] Mortality was monitored every 6-12 hours until all mice in either experimental group died. Experimental procedure of determining LPS half-life is as following. LPS (20 mg/kg) was i.p.-administrated to male FVB mice without or with rTMD1 (10 mg/kg; i.v.). Serum samples were collected at various time intervals and the amount of LPS was determined by Limulus amebocyte lysate test (Associates of Cape Cod, E. Falmouth, Mass.). A further experiment was performed to determine whether rTMD1 affects bacterial clearance. K. pneumoniae (5×10^2 CFU/mouse) was i.p.-administrated to male FVB mice without or with rTMD1 (10 mg/kg; i.v.), and blood samples were collected at various time intervals. Outgrowth of K. pneumoniae was quantified by plating serial dilutions of blood samples on blood agar plates and enumerating colonies after overnight incubation at 37° C."}, "[3]": {"molecular_target": "T1, binding of LPS binding protein to LPS (Homo sapiens, UniProt P18428)", "T1 sequence (P18428 26-481)": "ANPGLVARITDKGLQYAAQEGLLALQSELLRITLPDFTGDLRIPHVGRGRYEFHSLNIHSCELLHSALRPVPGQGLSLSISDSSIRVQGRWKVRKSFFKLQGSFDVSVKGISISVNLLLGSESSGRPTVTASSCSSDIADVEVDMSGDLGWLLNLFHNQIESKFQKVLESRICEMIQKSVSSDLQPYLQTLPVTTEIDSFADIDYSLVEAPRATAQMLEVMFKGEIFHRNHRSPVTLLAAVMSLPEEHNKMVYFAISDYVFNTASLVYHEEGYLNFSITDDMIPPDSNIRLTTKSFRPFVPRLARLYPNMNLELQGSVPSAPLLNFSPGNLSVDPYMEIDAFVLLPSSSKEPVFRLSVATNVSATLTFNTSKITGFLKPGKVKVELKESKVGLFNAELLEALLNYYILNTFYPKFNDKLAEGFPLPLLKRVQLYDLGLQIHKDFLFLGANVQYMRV", "assay": "Binding of LPS binding protein to LPS", "conditions": "data not shown"}, "[4]": {"assay": "Lethal sepsis model (LPS 40 mg/kg i.p.), survival", "type": "in vivo, Male FVB mice", "conditions": "four i.v. doses of 2 mg/kg", "description": "as §1"}, "K. pneumoniae [5]": {"system": "K. pneumoniae", "assay": "K. pneumoniae clearance in circulation (viable CFU counts in blood)", "type": "in vivo, male FVB mice", "description": "as §1"}, "[6]": {"conditions": "rTMD1 5-25 mg/kg i.v., 12 hours, 5×10^2 CFU"}}, "data": [{"molecule": "B1", "values": [{"measurement": "mice surviving more than 24 hours", "setting": "K. pneumoniae [1]", "value": 50, "unit": "%"}, {"measurement": "survival, post-treatment", "setting": "K. pneumoniae [2]; all rTMD1-treated groups vs infected mice without rTMD1", "value": "improved"}, {"measurement": "K. pneumoniae-induced TNF-α release, post-treatment", "setting": "K. pneumoniae [2]; rTMD1 10 mg/kg i.v. immediately, 30 or 60 minutes after K. pneumoniae", "value": "effectively suppress"}, {"measurement": "NO production in K. pneumoniae-infected mice", "setting": "K. pneumoniae [2]; [6]", "value": "effectively reduced"}, {"measurement": "TNF-α production in K. pneumoniae-infected mice", "setting": "K. pneumoniae [2]; [6]", "value": "effectively reduced"}, {"measurement": "binding of LPS binding protein to LPS", "setting": "[3]", "value": "not inhibited"}, {"measurement": "survival", "setting": "[4]; 1 day after LPS challenge", "value": 100, "unit": "%"}, {"measurement": "survival", "setting": "[4]; 4 days after LPS challenge", "value": 60, "unit": "%"}, {"measurement": "K. pneumoniae clearance in circulation, post-treatment", "setting": "K. pneumoniae [5]; 12, 24, 36 hours after infection, rTMD1 given up to 30 or 60 minutes after infection", "value": "enhance"}, {"measurement": "K. pneumoniae clearance in circulation", "setting": "K. pneumoniae [5]; 12, 24, and 36 hours after injection, rTMD1 10 mg/kg i.v., 5×10^2 CFU", "value": "significantly enhanced"}]}]}
